Broadly, the stoichiometry N is the number of molecules, sites or subunits per partner or assembly.

The series deals with the molecule itself. As to the kind of experiment: native gel or EMSA. On the technique in general: A gel shift assay detects complexes by their altered migration in electrophoresis.

B1: recombinant human alpha-N-acetylglucosamine-6-sulfatase with C-terminal c-myc tag (enzyme, UniProt P15586-1 37-552, looked up)
chain: VFGVAAGTRRPNVVLLLTDDQDEVLGGMTPLKKTKALIGEMGMTFSSAYVPSALCCPSRASILTGKYPHNHHVVNNTLEGNCSSKSWQKIQEPNTFPAILRSMCGYQTFFAGKYLNEYGAPDAGGLEHVPLGWSYWYALEKNSKYYNYTLSINGKARKHGENYSVDYLTDVLANVSLDFLDYKSNFEPFFMMIATPAPHSPWTAAPQYQKAFQNVFAPRNKNFNIHGTNKHWLIRQAKTPMTNSSIQFLDNAFRKRWQTLLSVDDLVEKLVKRLEFTGELNNTYIFYTSDNGYHTGQFSLPIDKRQLYEFDIKVPLLVRGPGIKPNQTSKMLVANIDLGPTILDIAGYDLNKTQMDGMSLLPILRGASNLTWRSDVLVEYQGEGRNVTDPTCPSLSPGVSQCFPDCVCEDAYNNTYACVRTMSALWNLQYCEFDDQEVFVEVYNLTADPDQITNIAKTIDPELLGKMNYRLMMLQSCSGPTCRTPGVFDPGYRFDPRLMFSNRGSVRTRRFSKHLL
modifications: N-glycosylated with high-mannose residues; mannose-6 phosphorylated at approximately 0.87% (W/W)
As to B1, the “stoichiometry N” value was found to be 2.

Source of the values: paper PMC8362844 (Molecular pharmaceutics, 2020).
